Measurements reported in article PMC9780825 (2022).
No end group written: not given here.

Tests used:
[1] = target: T1, Kv1.3 (mKate2-tagged, K-ΔKv1.3) 53-C-terminus (deletion M1-D52) (Homo sapiens, UniProt P22001); assay: confocal fluorescence binding on HEK293 cells
[2] = target: Kv1.3 (mKate2-tagged, K-Kv1.3) (Homo sapiens, UniProt P22001); assay: confocal fluorescence binding on HEK293 cells
[3] = target: T1, Kv1.3 (mKate2-tagged, K-ΔKv1.3) …; assay: fluorescent competitive binding assay (confocal, HEK293 cells)

T1 sequence (P22001 53-575, stated change not applied): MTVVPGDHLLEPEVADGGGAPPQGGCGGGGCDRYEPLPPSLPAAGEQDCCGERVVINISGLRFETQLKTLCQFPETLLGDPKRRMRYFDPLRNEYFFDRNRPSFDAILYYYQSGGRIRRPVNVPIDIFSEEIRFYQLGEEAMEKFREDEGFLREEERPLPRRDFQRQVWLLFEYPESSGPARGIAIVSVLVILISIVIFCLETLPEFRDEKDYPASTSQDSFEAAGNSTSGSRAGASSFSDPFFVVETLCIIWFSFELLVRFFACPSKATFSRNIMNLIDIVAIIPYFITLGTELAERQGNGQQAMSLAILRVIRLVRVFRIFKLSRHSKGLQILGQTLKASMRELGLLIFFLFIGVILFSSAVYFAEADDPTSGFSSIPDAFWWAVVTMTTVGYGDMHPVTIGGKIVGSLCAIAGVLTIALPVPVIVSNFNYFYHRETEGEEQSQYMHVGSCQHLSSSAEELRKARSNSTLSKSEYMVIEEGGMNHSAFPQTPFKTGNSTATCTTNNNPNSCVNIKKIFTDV
Chain of Kv1.3 (mKate2-tagged, K-Kv1.3) (P22001 whole entry): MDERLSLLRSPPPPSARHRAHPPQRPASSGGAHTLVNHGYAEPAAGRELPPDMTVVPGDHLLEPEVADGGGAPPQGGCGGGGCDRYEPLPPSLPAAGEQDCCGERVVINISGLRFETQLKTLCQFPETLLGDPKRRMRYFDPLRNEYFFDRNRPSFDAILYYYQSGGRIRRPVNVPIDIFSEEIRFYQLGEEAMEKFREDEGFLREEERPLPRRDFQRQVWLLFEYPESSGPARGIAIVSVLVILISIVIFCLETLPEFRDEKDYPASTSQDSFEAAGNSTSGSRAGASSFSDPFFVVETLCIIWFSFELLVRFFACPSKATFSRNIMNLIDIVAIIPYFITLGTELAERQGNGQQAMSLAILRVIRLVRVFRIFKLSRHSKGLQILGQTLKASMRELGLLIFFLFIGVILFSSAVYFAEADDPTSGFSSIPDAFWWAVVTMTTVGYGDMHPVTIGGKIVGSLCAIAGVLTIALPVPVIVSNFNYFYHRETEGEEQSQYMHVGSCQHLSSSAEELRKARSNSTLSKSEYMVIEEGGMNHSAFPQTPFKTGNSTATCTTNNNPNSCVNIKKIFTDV

Row | Binder | Kd [1] | Kd [2] | Ki [3]
1 | Atto488-TVIDVKCTSPKQCLPPCKAQFGIRAGAKCMNGKCKCYPH (ends and bridges not checked) [Hongotoxin 1 (Atto488-labeled, A-HgTx)] | 0.48 nM | 0.3 nM | 
2 | TVIDVKCTSPKQCLPPCKAQFGIRAGAKCMNGKCKCYPH (ends and bridges not checked; cysteine pairing not given here) [Hongotoxin 1 (HgTx1)] |  |  | 0.2 nM
3 | GVEINVKCSGSPQCLKPCKDAGMRFGKCMNRKCHCTPK (ends and bridges not checked; cysteine pairing not given here) [Kaliotoxin 1 (KTx1)] |  |  | 4 nM
4 | GVPINVSCTGSPQCIKPCKDAGMRFGKCMNRKCHCTPK (ends and bridges not checked; cysteine pairing not given here) [Agitoxin 2 (AgTx2)] |  |  | 1.1 nM
